# System: WT thymocytes
# Assay: Thymocyte proliferation, [3H] thymidine incorporation
# Type: cell-based, mice
# Conditions: anti-CD3 or anti-CD3+anti-CD28, 72 hrs, increasing amounts of IL-4
# Procedure: For proliferation assays, purified thymocytes or CD4^+ or CD8^+ splenic T cells (2×10^5 cells/well) were cultured in round bottom 96-well plates (Costar) precoated with anti-CD3 antibody (BD Pharmingen) in the absence or presence of soluble anti-CD28 antibody (BD Pharmingen). After 3 days, cultures were pulsed for 6 hrs with 1 μCi [^3H] thymidine (New England Nuclear) per well and cells were harvested. [^3H] thymidine incorporation was measured by scintillation counting. When indicated, either recombinant IL-4 or neutralizing anti-IL-4 antibody (R&D Systems) were added prior to [^3H] thymidine labeling.
# For proliferation assays, purified thymocytes (2×10^5 cells/well) were cultured in round bottom 96-well plates (Costar) precoated with anti-CD3 antibody (BD Pharmingen) in the absence or presence of soluble anti-CD28 antibody (BD Pharmingen). […] [^3H] thymidine incorporation was measured by scintillation counting. […]
# The effect of the Mekk1^KD mutation on activation of JNK and other MAPKs in response to TCR and CD28 engagement was investigated. • A. WT and Mekk1^KD thymocytes were incubated with anti-CD3 (10 μg/ml) and anti-CD28 (1 μg/ml). At the indicated times, JNK activity was measured by an immunecomplex kinase assay using GST-c-Jun(1-79) as the substrate. Phosphorylated c-Jun was detected by autoradiography and quantitated using a PhosphorImager. […] Cell proliferation was measured as above. […]
molecule,measurement,value
"IL-4: recombinant IL-4 (R&D Systems), added exogenously (protein, UniProt P05112 25-153, looked up) Interleukin-4: HKCDITLQEIIKTLNSLTEQKTLCTELTVTDIFAASKNTTEKETFCRAATVLRQFYSHHEKDTRCLGATAQQFHRHKQLIRFLKRLDRNLWGLAGLNSCPVKEANQSTLENFLERLKTIMREKYSKCSS",proliferative response of WT thymocytes on addition of exogenous IL-4,strongly potentiated
